Measured values taken from US20220411531A1 (SUMGEN MAB BEIJING BIOTECH, published 2022).

Target: T1, TYRO3-Fc (ACRO Biosystems) (UniProt Q06418 41-428, limits assumed)
T1 construct: Bought reagent; also called TRYO3; not shown: Fc part
T1 sequence (looked up): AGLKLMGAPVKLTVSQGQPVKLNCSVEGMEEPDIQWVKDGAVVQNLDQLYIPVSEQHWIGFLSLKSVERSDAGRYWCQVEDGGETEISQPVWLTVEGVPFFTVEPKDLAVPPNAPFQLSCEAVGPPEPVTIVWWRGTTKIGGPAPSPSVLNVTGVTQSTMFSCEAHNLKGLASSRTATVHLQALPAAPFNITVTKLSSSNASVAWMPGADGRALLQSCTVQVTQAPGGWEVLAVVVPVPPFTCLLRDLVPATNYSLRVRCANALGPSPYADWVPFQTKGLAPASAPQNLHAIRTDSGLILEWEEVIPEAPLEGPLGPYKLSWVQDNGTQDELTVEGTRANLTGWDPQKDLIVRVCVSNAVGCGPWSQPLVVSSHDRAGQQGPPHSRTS
Experiment: ELISA, TYRO3-Fc coated at 1 µg/ml, anti-human IgG Fab-HRP, OD450
Description: TYRO3-Fc (ACRO Biosystems), MER-His (ACRO Biosystems), and AXL-His (Sino Biological Inc.) each were coated at 1 μg/ml on an ELISA strip, which was held at 4° C. overnight. After the ELISA strips were washed with PBST, 10% fetal bovine serum was added to the ELISA strip, which was blocked for 1 hour at 37° C. Antibodies […], 6G12M21, 6G12M31 and 6G12M41 were added to react at 37° C. for 1 hour. After the ELISA strips were washed with PBST, horseradish peroxidase-labeled goat anti-human IgG Fab secondary antibodies (Goat Anti-Human IgG (Fab′)₂ (HRP), Abcam) were added to react for 30 minutes at 37° C. The ELISA strips were washed 5 times with PBST, and patted and dried on absorbent paper to remove residual droplets as much as possible. 100 μl of TMB (eBioscience, #85-00-420) was added to each well, and the ELISA strips were held for 1.5 min at room temperature (20±5° C.) in the dark. 100 μl of 2N H₂SO₄ stop solution was added to each well to terminate substrate reaction. The OD value was read at 450 nm by a microplate reader to analyze the binding ability of antibodies to the proteins.

binding result: no binding (tested: about 1 µg/mL)
B1: antibody 6G12M11 (antibody, human IgG1, kappa, V domains shown)
VH: QVQLVQSGPGLVKPSQSLSLTCAVTGFSISSGYYWNWIRQFPGQKLEWMGYRSYDGSNNYNPSLKNRISITRDTSKNQFFLKLNSVTSEDTATYYCARGWLLHYTMDYWGQGTTVTVSS
VL: EIVMTQSPSSVSVTLGQSASISCRSSRSLLHSNGFTYLYWYLQKPGQSPQLLIYQMSNLASGVPDRFSGSGSGTDFTLKISRVEAEDVGVYYCGQNLELPLTFGGGTKLEIKR
